Experiments:
[1] = target: T1, WDR5^22-334 (human, UniProt P61964 22-334); assay: ITC
[2] = target: T1, WDR5^22-334; assay: ITC; remark: listed apart in the source

Kd against the 1:1 mixture of WDR5^22-334 and H3^1-15 [1]: 32 ± 3 µM
Kd [2]: 3.8 µM
B1: PTENα-NTE^116-148 peptide (peptide)
peptide: SSRRSSHYPAAVQSQAAAERGASATAKSRAISI

Reference: article doi:10.1101/2023.12.09.570908 (bioRxiv, 2023)
